Test results from US20240279288A1, “APPLICATION OF PLANT JAZ PROTEINS AND DERIVED POLYPEPTIDES IN PREVENTION AND TREATMENT OF HUMAN AND ANIMAL TUMORS” (ANYANG INSTITUTE OF SINO-COTTON INDUSTRY INNOVATION, priority 2021, published 2024).

Legend:
c-Myc = c-Myc (Homo sapiens, UniProt P01106); assay: LUC experiment in tobacco leaves with c-Myc; assay type: binding; design: with the full length of c-Myc and NMYC, respectively; expressed in transfected cells; host or cells: yeast Y2HGold
Text: Using the method of LUC experiment, c-Myc (NCBI accession number: NM_002467.6) was subcloned to pCAMBIA NLuc vector (Chen, H., et al. “Firefly Luciferase Complementation Imaging Assay for Protein-Protein Interactions in Plants.” Plant Physiology 146.2(2008):368-376.) between the KpnI and SalI cleavage sites, and GhJAZ1 (SEQ ID No. 39) was subcloned to pCAMBIA-CLuc vector (Chen, H., et al. “Firefly Luciferase Complementation Imaging Assay for Protein-Protein Interactions in Plants.” Plant Physiology 146.2(2008):368-376.) between the KpnI and SalI cleavage sites. The constructed recombinant plasmids verified to be positive by sequencing were transformed into Agrobacterium GV3101 (pSoup-p19) (Shanghai Weidi biology technology co., Ltd, Cat. No.: AC1003), which were co-transfected into tobacco leaves. 2-3 days after injection, the infected leaves coated with the fluorescent substrate were placed in a dark chamber of the instrument for at least 6 min before taking images to quench fluorescence, followed by observation on the Nightowl-II LB983 instrument, using IndigoBasic software under the luciferase-5 min setting conditions. Cultivation was performed after co-infection. If there is interaction, LUC luciferase is expressed, and luminescence is detected after substrate application. As shown in F in FIG. 6, GhJAZ1 interacts with c-Myc.

MCF7 cells = assay: Apoptosis staining (Calcein AM/PI), fluorescence microscopy; assay type: cell-based, human; conditions: Calcein AM/PI staining vs PBS
Method: Method for apoptosis staining. Fluorescence microscopy detection: a. Seeding and culturing. Cells were seeded onto multiwell plates such as 96-well plates, cell culture dishes, or cell slides, and were treated in a certain way according to the experimental design. b. Washing (optionally). For adherent cells, the medium was removed, and cells were washed once with PBS. For suspended cells, cells were centrifuged at 250-1000×g at room temperature for 5 min, with the supernatant removed, followed by washing once with PBS. Phenol red or serum might interfere with the detection of this kit, therefore, a vacuum pump was preferred when removing the medium and PBS. PBS washing was not necessary in the case that the residual liquid can be sufficiently aspirated. c. Staining. An appropriate volume of Calcein AM/PI detection working solution (Beyotime Biotech. Inc., Calcein/PI Cell Viability and Cytotoxicity Detection Kit, Cat. No.: C2015) was added. Usually, 100 μl were added to each well for a 96-well plate, 250 μl for a 24-well plate, 500 μl for a 12-well plate, and 1 ml for a 6-well plate. Incubation was performed at 37° C. in dark for 30 min. […] After incubation, the staining effect was observed under a fluorescence microscope (with Calcein AM in green fluorescence, Ex/Em=494/517 nm; PI in red fluorescence, Ex/Em=535/617 nm). […]

[1] = test system: normal breast epithelial cells MCF10A; assay: Cell cycle detection (PI DNA content), MCF10A; assay type: cell-based; conditions: 0.691 μM, 24 h, vs PBS
Method: Cell cycle detection: cells were moderately digested by trypsin, and collected by centrifugation with supernatant removed, and then cells were washed with PBS, and collected by centrifugation at 1,500 rpm for 5 minutes to prepare a single-cell suspension (at a concentration of 1×10^6/ml). 1 ml of single-cell suspension was then taken and centrifuged with the supernatant discarded, and then 500 μl of 70% pre-cooled ethanol were added to fix the cells overnight at 4° C. The next day, cells were collected by centrifugation, resuspended with 1 ml of PBS and centrifuged, and then 100 μl of RNase A solution were added to the cell pellet, followed by placement in water bath at 37° C. for 30 min, and then 400 μl of PI staining solution was added and mixed well, followed by incubation at 4° C. in dark for 30 min and detection on the instrument to record under red fluorescence at the excitation wavelength of 488 nm. Specifically, a DNA content detection kit (cell cycle) (Solarbio, Cat. No.: CA1510) was used.

Chain of c-Myc (P01106 whole entry): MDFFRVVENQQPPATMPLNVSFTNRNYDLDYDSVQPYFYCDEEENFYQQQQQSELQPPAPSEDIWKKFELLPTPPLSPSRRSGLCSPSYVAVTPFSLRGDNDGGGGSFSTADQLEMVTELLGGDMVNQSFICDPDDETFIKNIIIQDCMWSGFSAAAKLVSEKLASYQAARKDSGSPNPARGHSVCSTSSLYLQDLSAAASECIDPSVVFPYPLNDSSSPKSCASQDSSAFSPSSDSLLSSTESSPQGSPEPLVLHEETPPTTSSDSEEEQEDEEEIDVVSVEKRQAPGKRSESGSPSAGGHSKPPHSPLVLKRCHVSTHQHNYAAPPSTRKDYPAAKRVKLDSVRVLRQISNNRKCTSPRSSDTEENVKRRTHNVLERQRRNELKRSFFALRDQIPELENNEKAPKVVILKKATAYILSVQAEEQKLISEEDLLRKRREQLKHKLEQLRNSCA

B1: GhJAZ1: cotton JAZ1 protein, gene number Gh_A05G0260, sequence SEQ ID No. 4; prokaryotically expressed with His tag, about 30 KD (protein)
chain: MSSCSESTAMKPARSPEKPSFAQTCNLLSQYLKEKGSFGDLSLGMTCNVEANGTPVVPPPTMNLFPLNDKSDDVCGRNGGNPKNLTSMDLFPQQAGLASKDDSPNKLEPQTAPMTIFYGGQVIVFNDFPANKAKEIMLLASNSSSQSNNSFNPIPFTSSIARSPIESSIGVPPTSKPVHPAQRAVPGDLPIARRASLHRFLEKRKDRITAKAPYQINNSAAAPSLSGDNKSWLGLAAQSP
modifications: His tag
notes: prokaryotically expressed with His tag, about 30 KD
- interaction with c-Myc (c-Myc): interacts
- mortality rate of MCF7 cells (MCF7 cells): significantly increased
- G2-M phase block in MCF10A cells [1]: no G2-M phase block
